Data published in patent US20090022714A1 (published 2009).
Residue numbers refer to the chain shown, from its start.

B1: human Fab SA1 (Fab, V domains shown)
VH: EVQLVQSGGGLVKPGGSLRLSCAASGFTFSSYSMNWVRQAPGKGLEWVSSISSSSSYIYYADSVKGRFTISRDNAKNSLYLQMNSLRAEDTAVYYCARVTDAFDIWGQGTMVTVSS
VL: QSVVTQPPSVSGAPGQRVTISCTGSHSNFGAGTDVHWYQHLPGTAPRLLIHGDSNRPSGVPDRFSGSRSGTSASLAITGLRVEDEADYYCQSYDYGLRGWVFGGGTKLTVL
notes: from the second library (D2C6 heavy chain with shuffled light chains)
B2: human Fab SF7 (Fab, V domains shown)
VH: B1 VH
VL: B1 VL with V4L, S54T, N55H, P61A, T71A
notes: from the second library
B3: human Fab SA3 (Fab, V domains shown)
VH: B1 VH
VL: DVVMTQSPSSLSASVGDRVTITCRASQNINNYLNWYQQKPGKAPKLLIYAASTLQSGVPSRFSGSGSGTDFTLTITSLQPEDSATYYCQQYSRYPPTFGGGTKVEIT
notes: from the second library
B4: human Fab SB10 (Fab, V domains shown)
VH: B1 VH
VL: QSALTQPASVSGSRGQSITLSCTGSSTDVGNYNYISWYQQHPGQAPKLLIYDVTSRPSGVSDRFSGSKSGLTASLTISGLQPEDEADYYCNSYSATDTLVFGGGTKLTVL
notes: from the second library
B5: human Fab SB5 (Fab, V domains shown)
VH: B1 VH
VL: QAVLTQPSSVSGAPGQRVTISCTGQSSNIGADYDVHWYQQFPGTAPKLLIYGHNNRPSGVPDRFSGSKSGTSVSLVISGLQAEDEADYYCQSYDSSLSGLVFGGGTKVTVL
notes: from the second library
B6: human Fab SC7 (Fab, V domains shown)
VH: B1 VH
VL: DIQLTQSPSSVSASVGDSVTITCRASQDISSWLAWYQQKPGEAPKLLIYAASLLQSGVPSRFSGSGSGTDFALTINSLQPEDFATYFCQQADSFPPTFGQGTRLEIK
notes: from the second library
B7: human Fab SD2 (Fab, V domains shown)
VH: B1 VH
VL: DIELTQSPSSVSASVGDRVTLTCRASQSIKRWLAWYQQKPGKAPRLLIYAASTLQSGVPSRFSGGGSGTDFTLTINSLQPEDFAIYYCQQANSFPPTFGPGTKVDIK
notes: from the second library
B8: human Fab SD5 (Fab, V domains shown)
VH: B1 VH
VL: QSVVTQPPSVSGAPGQRVTISCSGSRSNIGAHYEVQWYQQFPGAAPKLLIYGDTNRPSGVPDRFSASHSGTSASLAITGLQAEDEADYYCQSYDTSLRGPVFGGGTKLTVL
notes: from the second library
B9: human Fab SF2 (Fab, V domains shown)
VH: B1 VH
VL: QSVVTQPPSVSGAPGQRVTISCTGSSSNIGTGYDVHWYQQVPGSAPKLLIYAYTNRPSGVPDRFSGSKSGMSASLVIGGLQAEDEADYYCQSFDDSLNGLVFGPGTSVTVL
notes: from the second library
B10: human Fab 1121 (Fab, V domains shown)
VH: B1 VH
VL: DIQMTQSPSSVSASIGDRVTITCRASQGIDNWLGWYQQKPGKAPKLLIYDASNLDTGVPSRFSGSGSGTYFTLTISSLQAEDFAVYFCQQAKAFPPTFGGGTKVDIK
notes: from the second library
B11: human anti-KDR (VEGFR-2) Fab D2C6 (Fab, V domains shown)
VH: B1 VH
VL: EIVMTQSPATLSLSPGERATLSCRASQSVSSYLAWYQQKPGQAPRLLIYDSSNRATGIPARFSGSGSGTDFTLTISSLEPEDFATYYCLQHNTFPPTFGQGTKVEIK
notes: soluble Fab from E. coli HB2151; also called Hu-2C6 Fab
B12: human anti-KDR (VEGFR-2) Fab D1H4 (Fab, V domains shown)
VH: B1 VH
VL: QSALTQPASLSGSPGQSITISCAGTTTDLTYYDLVSWYQQHPGQAPKLVIYDGNKRPSGVSNRFSGSKSGNTASLTISGLQAEDEADYYCNSYVSSRFYVFGTGTKVTVL
notes: soluble Fab from E. coli HB2151; also called Hu-1H4 Fab
B13: human anti-KDR (VEGFR-2) Fab D2H2 (Fab, V domains shown)
VH: B1 VH with N77D
VL: DIQLTQSPSSVSASVGDRVTITCRASQGISSRLAWYQQKPGKAPKLLIYAASSLQTGVPSRFSGSGSGTDFTLTISSLQPEDFATYYCQQANRFPPTFGPGTKVDIK
notes: soluble Fab from E. coli HB2151; also called Hu-2H2 Fab
B14: human anti-KDR (VEGFR-2) Fab D1F7 (Fab, V domains shown)
VH: EVQLVQSGAEVKKPGASVKVSCKASGGTFSSYAISWVRQAPGQGLEWMGGIIPIFGTANYAQKFQGRVTFTADKSTSTAYMELRSLRSDDTAVYYCARGYDYYDSSGVASPFDYWGQGTLVTVSS
VL: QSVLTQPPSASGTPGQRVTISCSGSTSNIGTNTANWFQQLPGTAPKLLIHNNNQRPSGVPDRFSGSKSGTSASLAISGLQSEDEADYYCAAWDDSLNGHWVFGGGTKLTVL
notes: soluble Fab from E. coli HB2151; also called DIF7; Hu-1F7 Fab

Molecular target: human KDR (VEGFR-2), construct not stated (human, UniProt P35968 20-764, limits assumed)
Experiment: selection from second Fab phage library

Sequence of human KDR (VEGFR-2), construct not stated (P35968 20-764 limits assumed): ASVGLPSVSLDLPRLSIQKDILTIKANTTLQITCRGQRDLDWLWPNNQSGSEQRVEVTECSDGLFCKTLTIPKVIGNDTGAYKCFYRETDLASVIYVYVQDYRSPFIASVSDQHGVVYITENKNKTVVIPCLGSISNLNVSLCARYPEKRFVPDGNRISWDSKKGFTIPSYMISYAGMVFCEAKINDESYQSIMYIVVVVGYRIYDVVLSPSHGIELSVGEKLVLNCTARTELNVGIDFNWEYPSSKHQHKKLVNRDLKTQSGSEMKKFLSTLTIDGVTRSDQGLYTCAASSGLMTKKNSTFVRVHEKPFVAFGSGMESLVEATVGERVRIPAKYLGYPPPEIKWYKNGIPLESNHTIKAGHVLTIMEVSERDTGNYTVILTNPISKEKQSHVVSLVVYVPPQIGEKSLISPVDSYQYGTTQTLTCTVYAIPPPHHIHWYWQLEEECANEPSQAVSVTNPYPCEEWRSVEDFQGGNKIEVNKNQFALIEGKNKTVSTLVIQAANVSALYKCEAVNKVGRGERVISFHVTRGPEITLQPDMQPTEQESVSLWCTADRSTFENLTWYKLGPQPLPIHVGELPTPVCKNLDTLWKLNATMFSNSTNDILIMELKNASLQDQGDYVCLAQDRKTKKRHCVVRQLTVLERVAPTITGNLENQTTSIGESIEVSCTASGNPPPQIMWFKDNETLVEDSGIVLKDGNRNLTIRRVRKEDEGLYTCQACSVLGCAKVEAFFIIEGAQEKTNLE

Binder | binding result
B1 | binds
B2 | binds
B3 | binds
B4 | binds
B5 | binds
B6 | binds
B7 | binds
B8 | binds
B9 | binds
B10 | binds

Molecular target: T1, soluble fusion protein KDR (VEGFR-2)-AP (human, UniProt P35968 20-764)
T1 construct: extracellular domain; expressed in NIH 3T3 cells; also called KDR-AP; KDR (VEGFR-2)-alkaline phosphatase fusion protein; not shown: human placental alkaline phosphatase (AP), vector AP-Tag
Experiment: BIAcore, KDR-AP immobilized
Description: The binding kinetics of soluble Fab proteins to KDR (VEGFR-2) were measured by surface plasmon resonance using a BIAcore biosensor (Pharmacia Biosensor). […] Sensorgrams were obtained at each concentration and were evaluated using a program, BIA Evaluation 2.0, to determine the rate constants kon and koff Kd was calculated from the ratio of rate constants koff/kon.

T1 sequence (P35968 20-764): as the sequence (P35968 20-764 limits assumed) above

Binder | Kd [nM] | koff [s⁻¹] | kon [M⁻¹ s⁻¹]
B11 | 1.97 | 0.000538 | 273000
B12 | 2.76 | 0.000153 | 55500
B13 | 3.93 | 0.000487 | 124000
B14 | 45.2 | 0.00187 | 41400

Molecular target: T2, soluble fusion protein Flk-1-AP (murine, UniProt P35918 20-762)
T2 construct: expressed in NIH 3T3; not shown: alkaline phosphatase (AP)
Experiment: ELISA on captured Flk-1-AP

T2 sequence (P35918 20-762): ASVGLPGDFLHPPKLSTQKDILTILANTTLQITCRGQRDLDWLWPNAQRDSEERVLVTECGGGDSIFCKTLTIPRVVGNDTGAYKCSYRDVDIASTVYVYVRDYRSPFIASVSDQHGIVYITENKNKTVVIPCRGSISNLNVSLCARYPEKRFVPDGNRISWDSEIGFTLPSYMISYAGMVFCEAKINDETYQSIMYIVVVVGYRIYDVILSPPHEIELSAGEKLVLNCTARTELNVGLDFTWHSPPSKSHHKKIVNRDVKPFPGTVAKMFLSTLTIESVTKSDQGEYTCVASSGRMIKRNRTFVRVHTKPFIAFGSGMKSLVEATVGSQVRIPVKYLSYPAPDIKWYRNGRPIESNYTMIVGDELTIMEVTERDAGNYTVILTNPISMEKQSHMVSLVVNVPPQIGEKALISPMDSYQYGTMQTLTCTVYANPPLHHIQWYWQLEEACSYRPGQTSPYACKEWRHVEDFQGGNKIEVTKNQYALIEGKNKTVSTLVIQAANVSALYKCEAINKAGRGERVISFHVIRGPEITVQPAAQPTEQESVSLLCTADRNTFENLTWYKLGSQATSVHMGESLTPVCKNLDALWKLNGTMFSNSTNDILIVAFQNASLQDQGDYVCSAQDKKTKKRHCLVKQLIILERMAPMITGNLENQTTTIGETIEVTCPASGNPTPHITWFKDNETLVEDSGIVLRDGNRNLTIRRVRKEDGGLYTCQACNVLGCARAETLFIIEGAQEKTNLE

Binder | binding result
B11 | no binding
B12 | no binding
B13 | no binding

Molecular target: T2, soluble fusion protein Flk-1-AP
Experiment: blocking of VEGF binding to Flk-1

Binder | IC50 [nM]
B14 | ~15

Molecular target: human KDR (VEGFR-2), cell surface-expressed (HUVEC) (human, UniProt P35968 20-1356)
Experiment: cell-based or functional assay

Sequence of human KDR (VEGFR-2), cell surface-expressed (HUVEC) (P35968 20-1356): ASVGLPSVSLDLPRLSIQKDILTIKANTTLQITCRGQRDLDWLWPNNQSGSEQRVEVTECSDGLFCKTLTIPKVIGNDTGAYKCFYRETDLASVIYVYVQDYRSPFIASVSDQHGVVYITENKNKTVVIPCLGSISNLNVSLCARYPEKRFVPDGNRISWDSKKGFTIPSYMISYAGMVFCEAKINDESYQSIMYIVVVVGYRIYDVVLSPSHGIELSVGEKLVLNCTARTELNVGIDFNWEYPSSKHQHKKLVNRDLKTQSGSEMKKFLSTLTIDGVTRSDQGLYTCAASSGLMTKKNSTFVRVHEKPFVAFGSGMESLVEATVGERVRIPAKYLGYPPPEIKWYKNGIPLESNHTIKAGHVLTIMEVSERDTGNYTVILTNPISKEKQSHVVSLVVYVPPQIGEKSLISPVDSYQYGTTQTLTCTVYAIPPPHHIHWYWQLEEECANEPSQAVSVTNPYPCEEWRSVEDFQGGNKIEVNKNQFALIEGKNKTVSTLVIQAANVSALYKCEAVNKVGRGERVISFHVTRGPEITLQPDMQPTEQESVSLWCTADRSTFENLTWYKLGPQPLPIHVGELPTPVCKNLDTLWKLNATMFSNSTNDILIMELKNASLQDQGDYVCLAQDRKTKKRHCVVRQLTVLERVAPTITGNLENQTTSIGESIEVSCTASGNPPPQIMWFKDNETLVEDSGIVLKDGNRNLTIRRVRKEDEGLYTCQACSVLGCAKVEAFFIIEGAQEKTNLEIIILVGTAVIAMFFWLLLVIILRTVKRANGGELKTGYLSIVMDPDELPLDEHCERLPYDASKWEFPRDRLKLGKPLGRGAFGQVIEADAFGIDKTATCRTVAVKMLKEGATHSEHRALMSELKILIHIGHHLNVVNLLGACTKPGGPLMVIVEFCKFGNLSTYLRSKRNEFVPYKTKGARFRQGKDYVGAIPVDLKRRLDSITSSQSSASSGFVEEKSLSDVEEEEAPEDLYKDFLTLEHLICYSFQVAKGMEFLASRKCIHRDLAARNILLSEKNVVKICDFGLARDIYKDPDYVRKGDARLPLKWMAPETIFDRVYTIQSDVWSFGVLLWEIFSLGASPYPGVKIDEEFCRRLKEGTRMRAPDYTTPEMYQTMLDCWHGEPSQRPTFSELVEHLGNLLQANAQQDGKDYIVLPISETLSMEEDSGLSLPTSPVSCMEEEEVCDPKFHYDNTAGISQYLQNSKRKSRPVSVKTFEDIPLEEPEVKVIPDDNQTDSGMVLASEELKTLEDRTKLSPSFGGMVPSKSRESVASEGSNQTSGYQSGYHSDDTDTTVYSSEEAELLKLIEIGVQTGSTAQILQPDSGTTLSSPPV

Binder | EC50, inhibition of VEGF-stimulated [3H]-TdR incorporation in HUVEC [nM]
B11 | ~0.5
B12 | ~0.5
B13 | ~0.8
B14 | ~15

Molecular target: T1, soluble fusion protein KDR (VEGFR-2)-AP
Experiment: competitive ELISA: KDR-AP binding to immobilized VEGF165
Description: In a direct binding assay, various amounts of soluble Fab proteins were added to KDR (VEGFR-2)-coated 96-well Maxi-sorp microtiter plates and incubated at RT for 1 h, after which the plates were washed 3 times with PBST. The plates were then incubated at RT for 1 h with 100 Φl of a rabbit anti-human Fab antibody-HRP conjugate (Jackson ImmunoResearch Laboratory Inc., West Grove, Pa.). The plates were washed and developed following the procedure described above for the phage ELISA. […] The mixtures were then transferred to 96-well microtiter plates precoated with VEGF₁₆₅ (200 ng/well) and incubated at RT for an additional 2 h, after which the plates were washed 5 times and the substrate for AP (p-nitrophenyl phosphate, Sigma) was added. Absorbance at 405 nm was measured to quantify the bound KDR (VEGFR-2)-AP molecules (8).

Binder | IC50 [nM]
B11 | ~2
B12 | ~2
B13 | ~2
B14 | ~20
